Measured values taken from US20240034813A1 (Janssen / Centocor, published 2024).

Tests used:
[1] = biological target: T1, recombinant human EGFR/ErbB1/HER1 with C-terminal His tag, Cy5-labeled (human, UniProt P00533 25-645, Cy5 label (reacted with Cy5 Mono NHS Ester; sites not stated)); test: competitive TR-FRET (Eu-amivantamab/Cy5-EGFR), EC50 ratio vs Reference Material; Ex. 2 Formulation 1 (10 mM histidine), 1 month at 40 C
T1 construct: Commercial protein; also called Cy5-EGFR; Cy5-labeled EGFR antigen; not shown: C-terminal His tag
Description: (§1) In this procedure, varying concentrations of unlabeled bispecific EGFR-cMet antibody sample compete with donor fluorophore (Europium (Eu) chelate) labeled bispecific EGFR-cMet antibody for binding to an acceptor fluorophore (Cy5)-labeled EGFR antigen. Excitation of the donor fluorophore results in a transfer of energy to the bound acceptor fluorophore (FRET process). The resultant FRET is detected by emission of light at 665 nm using a microplate reader capable of measuring time-resolved fluorescence. Sample dose response curves are compared to the RM.
(§2) EGFR Binding Materials and Methods. Certified commercial EGFR, a recombinant human EGFR/ErbB1/HER1 with C-terminal His tag is reacted with certified commercial Cy5 Mono NHS Ester to produce Cy5-labeled EGFR. Validated bispecific EGFR-cMet antibody is reacted with certified commercial Europium (Eu) chelate to produce Eu-labeled bispecific EGFR-cMet antibody. […] Fluorescence is then measured by spectrophotometry at 665 nm, plotted against antibody concentration and analyzed by a four-parameter logistic model. The antibody concentration required to obtain half of the maximum fluorescence response (EC50) is determined for RM, assay control and samples. The potencies of assay control and samples are calculated based on the ratio of the sample (or control) and RM EC50 values and reported as a percentage activity relative to the RM.

[2] = biological target: T1, recombinant human EGFR/ErbB1/HER1 with …; test: competitive TR-FRET (Eu-amivantamab/Cy5-EGFR), EC50 ratio vs Reference Material; Ex. 2 Formulation 3 (acetate), 3 months at 40 C
Description: as §1, §2

[3] = biological target: T2, recombinant cMet/HGFR with c-terminal His-tag, Cy5-labeled (UniProt P08581 25-932, limits assumed, Cy5 label (reacted with Cy5 Mono NHS Ester; sites not stated)); test: competitive TR-FRET (Eu-amivantamab/Cy5-c-MET), EC50 ratio vs Reference Material; Ex. 2 Formulation 2 (50 mM histidine), 1 month at 40 C
T2 construct: Commercial protein; also called Cy5-c-MET; Cy5-labeled c-MET antigen; not shown: C-terminal His-tag
Description: as §1, with “(Cy5)-labeled c-MET” for “(Cy5)-labeled EGFR”, “the Reference Material (RM).” for “the RM.”
as §2, with “c-MET Binding” for “EGFR Binding”, “commercial cMet,” for “commercial EGFR,”, “recombinant cMet/HGFR” for “recombinant human EGFR/ErbB1/HER1”, “with c-terminal His-tag” for “with C-terminal His tag”, “Cy5-labeled c-MET.” for “Cy5-labeled EGFR.”, “produce Eu labeled” for “produce Eu-labeled”

[4] = biological target: T2, recombinant cMet/HGFR with c-terminal …; test: competitive TR-FRET (Eu-amivantamab/Cy5-c-MET), EC50 ratio vs Reference Material; Ex. 2 Formulation 3 (acetate), T0, 40 C table
Description: as §1, with “(Cy5)-labeled c-MET” for “(Cy5)-labeled EGFR”, “the Reference Material (RM).” for “the RM.”
as §2, with “c-MET Binding” for “EGFR Binding”, “commercial cMet,” for “commercial EGFR,”, “recombinant cMet/HGFR” for “recombinant human EGFR/ErbB1/HER1”, “with c-terminal His-tag” for “with C-terminal His tag”, “Cy5-labeled c-MET.” for “Cy5-labeled EGFR.”, “produce Eu labeled” for “produce Eu-labeled”

[5] = biological target: T1, recombinant human EGFR/ErbB1/HER1 with …; test: competitive TR-FRET (Eu-amivantamab/Cy5-EGFR), EC50 ratio vs Reference Material; Ex. 3 acetate formulation, 6 months at 25 C then shaking up to 72 h
Description: as §1, §2

[6] = biological target: T2, recombinant cMet/HGFR with c-terminal …; test: competitive TR-FRET (Eu-amivantamab/Cy5-c-MET), EC50 ratio vs Reference Material; Ex. 11 drug product, 3 months at 5 C
Description: as §1, with “(Cy5)-labeled c-MET” for “(Cy5)-labeled EGFR”, “the Reference Material (RM).” for “the RM.”
as §2, with “c-MET Binding” for “EGFR Binding”, “commercial cMet,” for “commercial EGFR,”, “recombinant cMet/HGFR” for “recombinant human EGFR/ErbB1/HER1”, “with c-terminal His-tag” for “with C-terminal His tag”, “Cy5-labeled c-MET.” for “Cy5-labeled EGFR.”, “produce Eu labeled” for “produce Eu-labeled”

[7] = biological target: T2, recombinant cMet/HGFR with c-terminal …; test: competitive TR-FRET (Eu-amivantamab/Cy5-c-MET), EC50 ratio vs Reference Material; Ex. 12 drug product with rHuPH20, 5 months at 5 C
Description: as §1, with “(Cy5)-labeled c-MET” for “(Cy5)-labeled EGFR”, “the Reference Material (RM).” for “the RM.”
as §2, with “c-MET Binding” for “EGFR Binding”, “commercial cMet,” for “commercial EGFR,”, “recombinant cMet/HGFR” for “recombinant human EGFR/ErbB1/HER1”, “with c-terminal His-tag” for “with C-terminal His tag”, “Cy5-labeled c-MET.” for “Cy5-labeled EGFR.”, “produce Eu labeled” for “produce Eu-labeled”

[8] = biological target: T1, recombinant human EGFR/ErbB1/HER1 with …; test: competitive TR-FRET (Eu-amivantamab/Cy5-EGFR), EC50 ratio vs Reference Material; Ex. 2 Formulation 3 (acetate), T0, 5 C table
Description: as §1, §2

- EGFR Binding % activity relative to RM [1]: 69%
- EGFR Binding % activity relative to RM [2]: 46%
- cMET Binding % activity relative to RM [3]: 90%
- cMET Binding % activity relative to RM [4]: 94%
- EGFR Binding % activity relative to RM [5]: 86%
- cMET Binding activity relative to Reference Material (%) [6]: 97%
- cMET Binding activity relative to Reference Material (%) [7]: 100%
- EGFR Binding % activity relative to RM [8]: 103%
B1: amivantamab (bispecific antibody, human IgG1, kappa)
heavy 1: not shown
light 1: not shown
heavy 2: not shown
light 2: DIQMTQSPSSVSASVGDRVTITCRASQGISNWLAWFQHKPGKAPKLLIYAASSLLSGVPSRFSGSGSGTDFTLTISSLQPEDFATYYCQQANSFPITFGQGTRLEIKRTVAAPSVFIFPPSDEQLKSGTASVVCLLNNFYPREAKVQWKVDNALQSGNSQESVTEQDSKDSTYSLSSTLTLSKADYEKHKVYACEVTHQGLSSPVTKSFNRGEC
notes: The samples tested were high concentration (160 mg/mL) formulations, fresh or stored or stressed; also called JNJ-61186372; bispecific EGFR-cMet antibody
